Source: publication PMC3293397 (Biochemistry, 2012)

Target: the molecule itself
Test: crystal structure

B1: S. elongatus KaiC E318A mutant protein (enzyme, Synechococcus elongatus PCC 7942, UniProt Q79PF4 1-519, looked up)
chain: MTSAEMTSPNNNSEHQAIAKMRTMIEGFDDISHGGLPIGRSTLVSGTSGTGKTLFSIQFLYNGIIEFDEPGVFVTFEETPQDIIKNARSFGWDLAKLVDEGKLFILDASPDPEGQEVVGGFDLSALIERINYAIQKYRARRVSIDSVTSVFQQYDASSVVRRELFRLVARLKQIGATTVMTTERIEEYGPIARYGVEEFVSDNVVILRNVLEGERRRRTLEILKLRGTSHMKGEYPFTITDHGINIFPLGAMRLTQRSSNVRVSSGVVRLDEMCGGGFFKDSIILATGATGTGKTLLVSRFVENACANKERAILFAYAESRAQLLRNAYSWGMDFEEMERQNLLKIVCAYPESAGLEDHLQIIKSEINDFKPARIAIDSLSALARGVSNNAFRQFVIGVTGYAKQEEITGLFTNTSDQFMGAHSITDSHISTITDTIILLQYVEIRGEMSRAINVFKMRGSWHDKAIREFMISDKGPDIKDSFRNFERIISGSPTRITVDEKSELSRIVRGVQEKGPES
modifications: phosphothreonine at T432 in five of the six subunits; no S431 phosphorylated
binding result: binds
